This test has as its target Cy5UbPRG fluorescent activity-based probe (UniProt P0CG48).

Take recombinant DUB2 (enzyme): the percent of DUB2 reacted with the probe came out at 85%.

Values taken from paper PMC7319358.
